Data: article PMC3825817 (DNA repair, 2013)

T1: human DNA polymerase δ p125 catalytic subunit (human, UniProt P28340 1-1107)
T1 sequence (looked up): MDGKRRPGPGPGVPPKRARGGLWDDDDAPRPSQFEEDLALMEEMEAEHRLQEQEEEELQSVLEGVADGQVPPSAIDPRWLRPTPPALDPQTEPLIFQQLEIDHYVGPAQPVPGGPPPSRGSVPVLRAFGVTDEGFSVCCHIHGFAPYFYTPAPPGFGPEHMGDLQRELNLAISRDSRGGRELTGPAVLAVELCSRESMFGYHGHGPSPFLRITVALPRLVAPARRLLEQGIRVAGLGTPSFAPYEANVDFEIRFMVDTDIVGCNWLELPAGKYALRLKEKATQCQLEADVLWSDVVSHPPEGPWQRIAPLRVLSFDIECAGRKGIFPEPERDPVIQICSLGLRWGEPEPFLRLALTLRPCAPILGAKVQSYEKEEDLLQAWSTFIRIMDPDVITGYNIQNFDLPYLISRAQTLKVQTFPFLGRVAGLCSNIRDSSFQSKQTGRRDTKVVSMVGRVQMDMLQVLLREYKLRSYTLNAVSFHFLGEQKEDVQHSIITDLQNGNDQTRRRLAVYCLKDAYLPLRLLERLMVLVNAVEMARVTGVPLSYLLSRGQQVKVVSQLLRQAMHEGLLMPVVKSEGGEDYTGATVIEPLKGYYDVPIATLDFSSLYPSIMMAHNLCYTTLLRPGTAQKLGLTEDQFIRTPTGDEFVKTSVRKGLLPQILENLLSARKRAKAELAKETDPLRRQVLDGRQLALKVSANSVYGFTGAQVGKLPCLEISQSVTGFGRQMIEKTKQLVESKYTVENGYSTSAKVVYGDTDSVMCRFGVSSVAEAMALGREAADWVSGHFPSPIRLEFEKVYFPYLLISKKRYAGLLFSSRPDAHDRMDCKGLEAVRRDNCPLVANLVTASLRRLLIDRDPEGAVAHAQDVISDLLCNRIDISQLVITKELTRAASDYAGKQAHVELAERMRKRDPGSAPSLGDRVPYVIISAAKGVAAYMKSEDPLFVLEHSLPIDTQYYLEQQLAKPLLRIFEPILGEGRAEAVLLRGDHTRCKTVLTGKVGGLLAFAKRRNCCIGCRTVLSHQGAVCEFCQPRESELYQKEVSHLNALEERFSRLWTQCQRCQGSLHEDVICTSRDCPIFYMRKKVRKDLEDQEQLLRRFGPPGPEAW

B1: human DNA polymerase δ p68 subunit (natural protein, UniProt Q15054 1-466, looked up)
chain: MADQLYLENIDEFVTDQNKIVTYKWLSYTLGVHVNQAKQMLYDYVERKRKENSGAQLHVTYLVSGSLIQNGHSCHKVAVVREDKLEAVKSKLAVTASIHVYSIQKAMLKDSGPLFNTDYDILKSNLQNCSKFSAIQCAAAVPRAPAESSSSSKKFEQSHLHMSSETQANNELTTNGHGPPASKQVSQQPKGIMGMFASKAAAKTQETNKETKTEAKEVTNASAAGNKAPGKGNMMSNFFGKAAMNKFKVNLDSEQAVKEEKIVEQPTVSVTEPKLATPAGLKKSSKKAEPVKVLQKEKKRGKRVALSDDETKETENMRKKRRRIKLPESDSSEDEVFPDSPGAYEAESPSPPPPPSPPLEPVPKTEPEPPSVKSSSGENKRKRKRVLKSKTYLDGEGCIVTEKVYESESCTDSEEELNMKTSSVHRPPAMTVKKEPREERKGPKKGTAALGKANRQVSITGFFQRK
B2: human DNA polymerase δ p50 subunit (natural protein)
chain: not shown
B3: human DNA polymerase δ p12 subunit (natural protein, UniProt Q9HCU8 1-107, looked up)
chain: MGRKRLITDSYPVVKRREGPAGHSKGELAPELGEEPQPRDEEEAELELLRQFDLAWQYGPCTGITRLQRWCRAKQMGLEPPPEVWQVLKTHPGDPRFQCSLWHLYPL

Each binder was assayed against T1, human DNA polymerase δ p125 catalytic … (assay: immunoaffinity co-purification, SDS-PAGE).

Stoichiometry N, ~1:
B1
B2
B3
